Experiment [1] deals with T1, WT-sFasL (Homo sapiens, UniProt P48023).
T1 construct: made in house
T1 sequence (P48023 103-281): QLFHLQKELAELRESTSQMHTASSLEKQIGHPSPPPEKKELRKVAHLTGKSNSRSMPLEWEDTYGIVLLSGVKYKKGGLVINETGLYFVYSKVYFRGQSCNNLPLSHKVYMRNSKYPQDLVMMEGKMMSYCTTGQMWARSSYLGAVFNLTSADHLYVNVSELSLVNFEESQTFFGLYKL
Briefly: Attenuation of WT-sFasL-induced caspase 3/7 activity in Jurkat cells by molar mixtures of WT and mut-sFasL. It counts as cell-based. The settings on record: serial dilutions of mut sFasL. The procedure: FIGS. 2A-D show the mut-sFasL has inhibitory properties. Highly Fas-sensitive Jurkat cells (FIG. 2A), primary human lung small airway epithelial cells (SAEC, FIG. 2B) or murine lung epithelial cells (LA4, FIG. 2D) were incubated with serial dilutions of mutated FasL, (mut sFasL). […] As a confirmatory test, the experiment was repeated using SAEC and an annexin-V translocation assay (FIG. 2C). WT=wild type (no mutant). […] Each dot represents individual data; lines represent means±SD. *=P<0.05; **=P<0.01, ***P<0.001 when compared to WT. One way ANOVA with SIdak's post hoc analysis.
Methods. Cells and cell culture. To test Fas responses in vitro, the highly-Fas sensitive cell line, Jurak, was used. […]
Measurements of apoptotic cascade activation. Apoptotic cascade activation was assessed by determining caspase 3/7 activity and Annexin V externalization. Caspase-3/7 activity was measured using a commercial substrate (Caspase-Glo 3/7 Assay, Promega, Madison, Wis., Cat #G8090) following manufacturer's instructions. Annexin V was measured with a luminescent commercial assay that allows for measurement of annexin V externalization in adherent cells (RealTime-Glo Annexin V assay, Promega, Madison, Wis., Cat #JA1011). Luminescence was measured with a Synergy H4 Microplate Reader (BioTek, Winooski, Vt.). […]

For experiment [2], the target named is T2, recombinant human Fas (Homo sapiens, UniProt P25445).
T2 construct: recombinant human soluble Fas receptors (PeproTech, Rocky Hill, N.J.); purchased PeproTech
T2 sequence (P25445 26-173 limits assumed): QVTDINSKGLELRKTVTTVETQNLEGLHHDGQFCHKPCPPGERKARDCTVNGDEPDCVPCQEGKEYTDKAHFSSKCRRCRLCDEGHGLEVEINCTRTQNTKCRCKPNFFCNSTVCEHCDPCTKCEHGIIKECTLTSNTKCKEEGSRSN
Briefly: Competition assay: binding of biotinylated WT sFasL to plate-coated recombinant human Fas. Particulars: biotinylated WT-sFasL 70 ng/mL, Fas coated at 250 ng/mL, serial 3-fold dilutions. On the procedure: The mixtures were incubated for 2 hours in 96-well plates pre-coated with recombinant hsFas (250 ng/ml). After washing unbound material, biotin was detected using HRP conjugated Streptavidin. […] The sFasL bound to Fas was detected using polyclonal anti-human FasL antibodies. […] Different molar ratios of the Fas-activating antibody CH-11 and mut-sFasL were added, and caspase 3/7 activity measured after 5 hours. […] Data represent the results from three separate experiments, each done in duplicate, and were analyzed by 2-way ANOVA with Sidak's post hoc analysis. […] Each dot represents individual data; lines represent means±SD. *=P<0.05; **=P<0.01, ***P<0.001.
Antibodies and Reagents. […] FLAG tagged mut-sFasL was detected using HRP anti-FLAG monoclonal antibody (Sigma-Aldrich, Cat #A85920). […]
WT-sFasL inhibition occurs prior to receptor binding. […] Recombinant human Fas at 250 ng/mL were coated and the binding of a fixed concentration of biotinylated WT-sFasL (70 ng/mL) were measured in the presence of serial 3-fold dilutions of either WT-sFasL or mut-sFasL. […] Serial dilutions of either WT-sFasL or mut-sFasL were incubated in wells coated with recombinant human Fas, 5 μg/mL, and after washing, detected sFasL bound to Fas using polyclonal anti-FasL antibodies. […]

B1: mut-sFasL: mutant sFasL molecule in which 8 charged amino acids in the 26 amino acid stalk region were changed to alanine (protein)
chain: QLFALQAALAALAASTSQMATASSLAKQIGHPSPPPEKKELRKVAHLTGKSNSRSMPLEWEDTYGIVLLSGVKYKKGGLVINETGLYFVYSKVYFRGQSCNNLPLSHKVYMRNSKYPQDLVMMEGKMMSYCTTGQMWARSSYLGAVFNLTSADHLYVNVSELSLVNFEESQTFFGLYKL
In the case of B1, the “inhibition of wild type sFasL activity (caspase 3/7)” value in experiment [1] is recorded as “dose-dependent inhibition of wild type sFasL activity”. Further, in experiment [2], the “effect of increasing competitor concentration on binding of biotinylated WT-sFasL to Fas” value was “little effect on binding of biotinylated WT-sFasL, except at very high doses”.

(Values after patent US20220002363A1, “COMPOSITIONS AND METHODS FOR TREATING PULMONARY DISEASE” (United States Government As Represented By The Department …, priority 2020, published 2022).)
